Values joined by “and” are separate entries in the source; they are usually repeats but may differ in a detail not shown here. Equal values may be shown once. Read-outs that look alike come from different tables or passages of the source. Non-standard residues stand in square brackets, D forms with d. No end group written: not given here. Me2a = asymmetric dimethyl (on arginine); pT = C[C@@H](OP(=O)(O)O)[C@H](N)C(=O)O
B1: KDM4A-DTD N931D (domain or fragment)
chain: ALQSITAGQKVISKHKNGRFYQCEVVRLTTETFYEVDFDDGSFSDNLYPEDIVSQDCLQFGPPAEGEVVQVRWTDGQVYGAKFVASHPIQMYQVEFEDGSQLVVKRDDVYTLDEELP
B2: KDM4A-DTD triple mutant N931D/D939R/D945R (DRR) (domain or fragment)
chain: ALQSITAGQKVISKHKNGRFYQCEVVRLTTETFYEVDFDDGSFSRNLYPERIVSQDCLQFGPPAEGEVVQVRWTDGQVYGAKFVASHPIQMYQVEFEDGSQLVVKRDDVYTLDEELP
modifications: HaloTag-Alexa 660 ligand conjugated to the HaloTag in the far western
B3: KDM4A double tudor domain (KDM4A-DTD), HaloTag-tagged, wild type (domain or fragment)
chain: ALQSITAGQKVISKHKNGRFYQCEVVRLTTETFYEVNFDDGSFSDNLYPEDIVSQDCLQFGPPAEGEVVQVRWTDGQVYGAKFVASHPIQMYQVEFEDGSQLVVKRDDVYTLDEELP
B4: KDM4B double tudor domain (KDM4B-DTD), HaloTag-tagged, wild type (domain or fragment)
chain: RAVSLGQVVITKNRNGLYYRCRVIGAASQTCYEVNFDDGSYSDNLYPESITSRDCVQLGPPSEGELVELRWTDGNLYKAKFISSVTSHIYQVEFEDGSQLTVKRGDIFTLEEELP
B5: KDM4C double tudor domain (KDM4C-DTD), HaloTag-tagged, wild type (domain or fragment)
chain: KVISVGQTVITKHRNTRYYSCRVMAVTSQTFYEVMFDDGSFSRDTFPEDIVSRDCLKLGPPAEGEVVQVKWPDGKLYGAKYFGSNIAHMYQVEFEDGSQIAMKREDIYTLDEELP

How the values were obtained:
Assay in all cases: FP
[1] = target: B5
KDM4B-DTD N951G = target: T1, KDM4B-DTD N951G (Homo sapiens)
T1 chain: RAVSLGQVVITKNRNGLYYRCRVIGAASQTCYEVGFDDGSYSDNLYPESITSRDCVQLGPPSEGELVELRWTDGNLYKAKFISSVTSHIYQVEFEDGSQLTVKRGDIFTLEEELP

KDM4B-DTD S965D = KDM4B-DTD S965D (human, UniProt O94953 917-1031, S965D)
KDM4B-DTD N960A = KDM4B-DTD N960A (human, UniProt O94953 917-1031, N960A)
KDM4B-DTD N951M = target: T2, KDM4B-DTD N951M (Homo sapiens)
T2 chain: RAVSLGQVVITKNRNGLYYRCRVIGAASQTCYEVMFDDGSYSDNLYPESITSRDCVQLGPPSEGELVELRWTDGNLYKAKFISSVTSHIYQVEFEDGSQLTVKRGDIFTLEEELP

ING2-PHD = target: T3, ING2-PHD
T3 chain: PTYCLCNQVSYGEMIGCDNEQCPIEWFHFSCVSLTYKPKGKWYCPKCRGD

H3K9me3 [2] = target: H3K9me3
H3K27me3 [3] = target: H3K27me3
H3K27me3 [4] = target: H3K27me3; remark: listed apart in the source
H3T3phK4me3 peptide = H3T3phK4me3 peptide (UniProt P68431, phosphothreonine at T3; trimethyl-lysine at K4)
H3K27me3 [5] = target: H3K27me3; remark: listed apart in the source
[6] = target: B5
[7] = target: B4
KDM4A-DTD N931D = target: B1
H3K9me3 [8] = target: H3K9me3; remark: listed apart in the source
[9] = target: B3
[10] = target: B2
KDM4A-DTD N940A = target: T4, KDM4A-DTD N940A (human, UniProt O75164 895-1011, N940A)
T4 sequence: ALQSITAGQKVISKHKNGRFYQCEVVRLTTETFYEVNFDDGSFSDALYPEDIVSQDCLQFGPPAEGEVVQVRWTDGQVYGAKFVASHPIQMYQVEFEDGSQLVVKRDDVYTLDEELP

KDM4A-DTD D945S = target: T5, KDM4A-DTD D945S (human, UniProt O75164 895-1011, D945S)
T5 sequence: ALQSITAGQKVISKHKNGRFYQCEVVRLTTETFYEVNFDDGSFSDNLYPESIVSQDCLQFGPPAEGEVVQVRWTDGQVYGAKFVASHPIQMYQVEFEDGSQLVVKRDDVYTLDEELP

[11] = target: B4

KDM4B-DTD N960A, sequence (O94953 917-1031 N960A): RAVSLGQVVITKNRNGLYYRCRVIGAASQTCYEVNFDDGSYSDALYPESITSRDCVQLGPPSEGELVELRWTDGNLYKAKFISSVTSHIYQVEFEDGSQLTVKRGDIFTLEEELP
KDM4B-DTD S965D, sequence (O94953 917-1031 S965D): as the sequence (O94953 917-1031 N960A) above, with A44N, S49D counted along it

## RKQLATK(Me3)AARKSAPAT (also: fluorescein label, end not given here) [H3 (17-32) K23me3 peptide, fluorescein-labelled]
[1]
  Kd: 73.6 µM
KDM4B-DTD N951G
  Kd: 32.6 µM
KDM4B-DTD S965D
  Kd: 16.4 µM
KDM4B-DTD N960A
  Kd: 107 µM
KDM4B-DTD N951M
  Kd: 41.4 µM
ING2-PHD
  Kd: 257 µM

## B1
H3K9me3 [2]
  Kd: 83.3 µM
H3K27me3 [3]
  Kd: 98.6 µM

## B2
H3K27me3 [4]
  Kd: 570 µM

## B3
H3T3phK4me3 peptide
  Kd: 122 µM
H3K27me3 [5]
  Kd: 122 µM

## RKQLATK(Me3)AAAKSAPAT (also: fluorescein label, end not given here) [H3K23me3R26A peptide, fluorescein-labelled]
[6]
  Kd: 72.5 µM
[7]
  Kd: 180 µM
KDM4A-DTD N931D
  Kd: 27.7 µM

## B4
H3K9me3 [8]
  Kd: 800 µM
H3K27me3 [5]
  Kd: 140 µM

## B5
H3K27me3 [5]
  Kd: 104 µM

## ARTK(Me3)QTARKSTGGK (also: fluorescein label, end not given here) [H3K4me3 peptide, fluorescein-labelled]
[9]
  Kd: 2.7 µM
[10]
  Kd: 370 µM
KDM4A-DTD N940A
  Kd: 74.1 µM
KDM4A-DTD D945S
  Kd: 151 µM
ING2-PHD
  Kd: 5.8 µM
KDM4A-DTD N931D
  Kd: 2.7 µM

## RKQLA[pT]K(Me3)AARKSAPAT (also: fluorescein label, end not given here) [H3T22phK23me3 peptide, fluorescein-labelled]
[6]
  Kd: 507 µM
[7]
  Kd: 130 µM and 259 µM
KDM4A-DTD N931D
  Kd: 18.7 µM

## RKQLATK(Me2)AARKSAPAT (also: fluorescein label, end not given here) [H3K23me2 peptide (dimethylated H3K23), fluorescein-labelled]
[6]
  Kd: 180 µM
[7]
  Kd: 35.3 µM
KDM4A-DTD N931D
  Kd: 2.6 µM

## RKQLATK(Me3)AAR(Me2a)KSAPAT (also: fluorescein label, end not given here) [H3K23me3R26me2a peptide, fluorescein-labelled]
[6]
  Kd: 43.7 µM
[7]
  Kd: 53.1 µM
KDM4A-DTD N931D
  Kd: 6 µM

## AKRHRK(Me3)VLRDN (also: fluorescein label, end not given here) [H4K20me3 peptide, fluorescein-labelled]
[1]
  Kd: 58.7 µM
[11]
  Kd: 60 µM

## RKQLATK(Me)AARKSAPAT (also: fluorescein label, end not given here) [H3K23me1 peptide (monomethylated H3K23), fluorescein-labelled]
[6]
  Kd: 520 µM
[7]
  Kd: 155 µM
KDM4A-DTD N931D
  Kd: 31.1 µM

## ARKSTGGK(Me3)APRKQLATK (also: fluorescein label, end not given here) [H3K14me3 peptide, fluorescein-labelled]
[1]
  Kd: 166 µM
[9]
  Kd: 108 µM
[11]
  Kd: 165 µM
[10]
  Kd: 158 µM
